Assays:
[1] = target: the molecule itself; experiment: native gel or EMSA; blue native PAGE, 20 ug purified CT-MRAP2 domain on Native PAGE Novex 3% to 16% Bis-Tris gels, 0 °C; blot with anti-His
[2] = target: the molecule itself; experiment: SDS-PAGE; purified zCT-MRAP2a, electrophoresis under denaturing conditions

B1: C-terminal domain of zebrafish MRAP2a, His-tagged (zCT-MRAP2a) (domain or fragment, UniProt F8W4H9 73-217, looked up)
chain: EAAEPYEKRMRLTSCADGLGRQRETDGRTGLSRPLLEESRSLFHCYINEEEREGGRAATDAGALTHGRSGIGNSRGQVEEVGLVVQNMVLESRAEREAALLAHFNIPNFVNSELNSALGDEDLLLGDPPIIMEEARPRCTHHIID
notes: zebrafish MRAP2a, C-terminal domain, the region from residue 73 to residue 217 encoded by the third exon; cloned by PCR from plasmid XM_021473026.1 into pet28; also called zCT-MRAP2a domain; pet 28zCT-MRAP2; source: E. coli, purified (His-tagged protein purification kit)
- stoichiometry N [1]: ~2
- stoichiometry N [2]: 2

From paper PMC11277097, “MRAP2a Binds and Modulates Activity and Localisation of Prokineticin Receptor 1 in Zebrafish” (International Journal of Molecular Sciences, 2024)
